These results are taken from patent US7083949.

In experiment [1] the target is human IL-6 (human) (UniProt P05231). Put plainly: 20 pM 125I-IL-6 preincubated with 500 pM mAb B-E8 for 20 hours, chase with 20 nM unlabelled IL-6, Protein G-Sepharose precipitation.
Experiment [2] shares this target. The experiment can be described thus: cell-based or functional assay.

Where only a bound is given, the exact number is not on record here.

Sequence of human IL-6 (human) (P05231 30-212 limits assumed): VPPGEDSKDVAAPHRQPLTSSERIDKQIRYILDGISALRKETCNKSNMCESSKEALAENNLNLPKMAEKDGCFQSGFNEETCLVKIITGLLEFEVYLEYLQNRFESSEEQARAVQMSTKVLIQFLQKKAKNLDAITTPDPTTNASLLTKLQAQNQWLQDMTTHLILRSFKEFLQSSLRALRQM

B1: anti-IL-6 monoclonal neutralizing antibody B-E8 (antibody, from another filing, V domains shown)
VH: QVTLKESGPGILKPSQTLSLTCSFSGFSLSTSGMGVGWIRQPSGKGLEWLAHIWWDDDKYYNPSLKSQLTISKDTSRNQVFLKITSVDTADTATYYCARSYDDYLYYALDYWGQGTSVTVSS
VL: DIVMTQSPATLSVTPGDRVSLSCRASQSISDYLHWYQQKSHESPRLLIKSVSQSISGIPSRFSGSGSGSDFTLSINSVEPEDVGVYYCQNGHSFPLTFGAGTKLELK
B1 gave a percent of initial 125I-IL-6 counts still bound after three days in experiment [1] of less than 5%. In experiment [2], this molecule returned an inhibition of IL-6-dependent proliferation of XG-1 cells (MTT) (fold molar excess over IL-6) of 10.
